The text below walks through data of patent US20220195023A1.

First the molecules themselves.
B1: AB-007072 (antibody, V domains shown)
VH: QMQLVESGGGVVQPGRSLRLSCTASGFTFSTYAMHWVRQSPGQGLQWVAVISYHSTNKYYEDSVRGRFTISRDNSKNTLYLQMNSLRAEDTAVYYCARDGYSSSFFDFWGQGTLVTVSS
VL: DIQMTQSPSTLSASVGDRVAITCRASQSISRWLAWYQQQPGKAPKLLMSGASNLESGVPSRFSGSGSGTEFTLTISSLQPDDFATYYCQHYNSYFVTFGQGTKVEIK
B2: AB-007032 (antibody, V domains shown)
VH: B1 VH with M2V, T23A, S40A
VL: B1 VL with A20T, M48I, N53V
B3: AB-007033 (antibody, V domains shown)
VH: B1 VH with T23A, S40A, Q46E, E61A
VL: B1 VL with A20T, N53V
B4: AB-007073 (antibody, V domains shown)
VH: B1 VH
VL: B1 VL with N53V, Y94H
B5: AB-007031 (antibody, V domains shown)
VH: B1 VH
VL: B1 VL with M48I, N53V
B6: AB-007028 (antibody, V domains shown)
VH: B1 VH with T23A, S40A
VL: B1 VL with A20T, N53V
B7: AB-007074 (antibody, V domains shown)
VH: B1 VH with T23A, S40A
VL: B1 VL with A20T, N53V, F95Y

Numbering of substitutions follows the chain as printed.

The target of one assay is … (Plasmodium falciparum). In words: BLI, target on sensor. (Biolayer interferometry detects binding as a change in optical thickness at a sensor tip.)
For orientation: Kd means the concentration at which binding is half-saturated. A higher Kd goes with weaker binding. B1 gave a Kd of 15.5 nM.
In the case of B2, the Kd is 6.42 nM.
On the same count and under the same terms, in the case of B3 it was 2.62 nM; in that of B4, 17.9 nM.
For the molecule B5, the Kd stood at 2.89 nM.
Same read-out and setting: in the case of B6 it was 2.93 nM; in that of B7, 6.05 nM.

A further assay deals with NANPNVDP (Plasmodium falciparum). Description: BLI, target on sensor.
In turn, B1 displayed a Kd of 16.9 nM.
Consider B2, for which the Kd was determined as 13.9 nM.
B3 had a Kd of 8.08 nM.
The molecule B4 came in with a Kd of 20.3 nM.
As to B5, the Kd came to 7.02 nM.
For the molecule B6, the Kd is 9.18 nM.
Regarding B7, the Kd was 10.2 nM.

The next assay has as its target (NVDP)3(NANP)2 (Plasmodium falciparum). In words: BLI, target on sensor.
The molecule B1 registered a Kd of 14.5 nM.
Still for that read-out and setting: then B2, with 6.68 nM; and B3, with 3.47 nM; and B4, with 18.1 nM.
Same read-out and setting: then B5, with 3.5 nM.
Same read-out and setting: in the case of B6 it was 4.26 nM; in that of B7, 7.96 nM.

The next assay deals with (NANP)6 (Plasmodium falciparum). In words: BLI, target on sensor.
In turn, B1 yielded a Kd of 1.65 nM.
Consider B2, for which the Kd came out at 0.338 nM.
For B3, the Kd worked out at 0.303 nM.
For the molecule B4, the Kd is 0.627 nM.
Still for that read-out and setting: then B5, with 0.0569 nM.
In turn, B6 showed a Kd of 0.501 nM.
Consider B7, for which the Kd is 0.601 nM.

In another assay the target is (NPNA)3 (Plasmodium falciparum). In words: BLI, target on sensor.
Take B1: the Kd was 0.842 nM.
B2 showed a Kd of 0.169 nM.
B3: the Kd amounted to 0.154 nM.
In turn, B4 had a Kd of 0.326 nM.
Take B5: the Kd came to 0.003 nM.
Still for that read-out and setting: in the case of B6 it was 0.0413 nM; in that of B7, 0.206 nM.

The target in another assay is … (Plasmodium falciparum). Description: SPR, antibody on chip. (SPR reads the build-up and loss of mass on a sensor chip optically.)
For the molecule B1, the Kd is 38700 nM.
On the same count and under the same terms, then B2, with 4830 nM.
As for B3, the Kd was found to be 2580 nM.
In turn, B4 had a Kd of 16500 nM.
For the molecule B5, the Kd worked out at 5210 nM.
The molecule B6 gave an equilibrium dissociation constant (Kd) of 15900 nM.
Molecule B7 yielded a dissociation constant (Kd) of 12800 nM.

A further assay addresses (NVDP)3(NANP)2 (Plasmodium falciparum). In words: SPR, antibody on chip.
As to B1, the Kd was 13800 nM.
B2 showed a Kd of 6540 nM.
Same read-out and setting: in the case of B3 it was 2680 nM; in that of B4, 19500 nM.
The molecule B5 yielded a Kd of 2590 nM.
B6 displayed a Kd of 2350 nM.
B7 gave a Kd of 3920 nM.

For the next assay, the target named is (NANP)6 (Plasmodium falciparum). In words: SPR, antibody on chip.
The molecule B1 showed a Kd of 0.0376 nM.
Regarding B2, the Kd came out at 1.96 nM.
B3 had a Kd of 0.0631 nM.
Consider B4, for which the Kd was 0.871 nM.
On the same count and under the same terms, then B5, with 0.0384 nM; and B6, with 0.166 nM.
In turn, B7 showed a Kd of 0.665 nM.

A further assay addresses (NPNA)3 (Plasmodium falciparum). In words: SPR, antibody on chip.
In the case of B1, the Kd was determined as 73.9 nM.
Consider B2, for which the Kd worked out at 13.6 nM.
In the case of B3, the dissociation constant Kd amounted to 8.02 nM.
Regarding B4, the Kd worked out at 72 nM.
As to B5, the Kd came out at 8.02 nM.
On the same count and under the same terms, in the case of B6 it was 5.37 nM.
In the case of B7, the Kd was 8.94 nM.
